Data taken from the supplement of paper PMC9170038.

Test system: MS2 coat protein
Assay: apparent KD of MS2 coat protein; designed switch direction (-1 OFF switch, 1 ON switch): -1; higher = weaker reporter binding
How it was run: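 The apparent KD reported per design is the median over clusters of curve fits to normalised cluster fluorescence. The RNA switches were transcribed on Illumina chips by stalled E. coli RNA polymerase. SNAP-549-labelled MS2 coat protein was titrated from 0.7 or 1.5 nM, doubling up to 3 µM, in Tris-HCl pH 7.5 buffer containing KCl, MgCl2, BSA, DTT, tRNA and Tween-20, with no input, 200 uM small-molecule ligand, or an oligonucleotide input.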

[1] = input ligand: microRNA oligo, concentration not stated
[2] = Eterna round: R95, input ligand: FMN 200 uM
[3] = Eterna round: R95, input ligand: microRNA oligo, concentration not stated
[4] = Eterna round: R95, input ligand: none

Sequence	apparent KD of MS2 coat protein (input ligand: FMN 200 uM) [nM]	apparent KD of MS2 coat protein (input ligand: none) [nM]	apparent KD of MS2 coat protein [3] [nM]	other results
ACGGUGGUCCGAGAACAUGAGGAUCACCCAUGUGACAAAACCAAGGAUAUAGACGGACCGCCCGACUAGAAGGUGGAAAGAAAA [Aronlema] (Eterna round: R96, puzzle: Exclusion NG 3)	90.2	77.9	–	apparent KD of MS2 coat protein [1]: 41.1 nM
CGUCGACAUGUAGGAUAUCUGCACGAUUAGUGCAGAGAAGGACAUGAGGAUCACCCAUGUAGAUCACGACGAAUUAAUUUAAUU [ENG1/6-C1] (Eterna round: R96, puzzle: Exclusion NG 1)	476	527	–	apparent KD of MS2 coat protein [1]: 298 nM
CGUACUAACACGAAAGUGUUAGUACAAUAAGCUUGUGAAACAUGAGGAUCACCCAUGUCCUCAUAAGCUCGUCUUAA [salish99_TOv2_r3_006] (puzzle: Sensor v3, turn-off variant 2)	–	–	268	apparent KD of MS2 coat protein [2]: 14.1 nM; apparent KD of MS2 coat protein [4]: 12.1 nM
UUUUUGUAUGAAGGAUAUACUUAACAUGAGGAUCACCCAUGUGGUGUUGUGAGUGAGUGAGUUUAGUAGAAGGUCAAUUAUUUU [JMF's solution 24] (Eterna round: R96, puzzle: Exclusion NG 2)	843	361	–	apparent KD of MS2 coat protein [1]: 346 nM
GGAAGGUCAGGAUAUGCGAGGGAGUGGGAAAUAGGAUGGUAGCAGAAGGGACAUGAGGAUCACCCAUGUUAGGA [JR_Exclu4_Sub0101] (puzzle: Exclusion 4)	–	–	28	–
AAGUAGACGGUGAGGAUAUAGGUCGAAUGACCGAUUUAGAAGGCACAUGAGGAUCACCCAUGUGGGUAACGUCG [Brourd's EX4 #30] (Eterna round: R97, puzzle: Brourd's mod of Exclusion 4)	24.1	27.5	–	–
AAUAAUAAGGAGGAUAUCGUAUCGGAAACGAUACGAGAAGGCCUAACAUGAGGAUCACCCAUGUUCCUCAAUAA [Fiskers Ex 6 - 2] (puzzle: Exclusion 6)	–	–	297	apparent KD of MS2 coat protein [2]: 1320 nM; apparent KD of MS2 coat protein [4]: 311 nM
CGGCGGGUCGCGCUGGUCCACAUGAGGAUCACCCAUGUUCCGGCACGCUGAAGGCACACGCUUUUUGCUCGUCUUAU [Sensor V1 S1] (Eterna round: R97, puzzle: Sensor, turn-off variant 1)	32.2	35	–	–
UUGUUGUAUGUAGGAUAUGCAUAUUAUUAUUAUGCAGAAGGACAUGAGGAUCACCCAUGUAUGUUAUUAUUAUAUGUUAUAUGU [Title] (Eterna round: R96, puzzle: Exclusion NG 1)	–	–	–	apparent KD of MS2 coat protein [1]: 25.6 nM
AGUACCUGAGUACAAAGUAACAUGAGGAUCACCCAUGUAAAUGGGUGAGAACAAGCUCACCGUUCGUCUUAAAUAAA [JL turnoff v1 79] (Eterna round: R96, puzzle: Sensor v2, turn-off variant)	584	618	–	apparent KD of MS2 coat protein [1]: 38.8 nM
AAACUCCCGGCAACCGGGAACAUGAGGAUCACCCAUGUGGCGUGACUCAUACGGGCUUUUUGUUCGUUUUAUUCACG [Xeisororer] (puzzle: Sensor v3, turn-off variant 1)	–	–	27.7	apparent KD of MS2 coat protein [2]: 53.4 nM; apparent KD of MS2 coat protein [4]: 63.6 nM
ACGUUGUCAGGAUAUCGUUAAUUUAGUUGUUUGUAUUAGUUCGAGAAGGGACAUGAGGAUCACCCAUGUUUGAA [Ex4 #34] (Eterna round: R97, puzzle: Exclusion 4)	36.2	31.5	–	–
UUUAGUUUAGGAUAUGUAGAUUUUAACAUGAGGAUCACCCAUGUAGAUCCUGAAUUAACUACAGAAGGGAGCAUUU [Mod of Brourd 15 - Jieux - Exclusion 5] (Eterna round: R97, puzzle: Exclusion 5)	70.5	68.2	–	–
CCAAGCUUAUUCAUUAACAACAUGAGGAUCACCCAUGUAUAGGCAAUUAUGUUUGGGCUCUUUAGUGCUCGUCUUAU [Sensor-V1 #23] (Eterna round: R97, puzzle: Sensor, turn-off variant 1)	16.1	15.5	–	–
AAAAUGGUCUAGGAUAUGACAAAUCUGAGCACGUCAGAAGGAGACACAUGAGGAUCACCCAUGUGGGUGCGAAA [Erteedza] (Eterna round: R96, puzzle: Exclusion 6)	–	–	–	apparent KD of MS2 coat protein [1]: 29.3 nM
CCUCCGUAUUAGGAUAUCGUCCCGGAAACGGGACGAGAAGGAAUGACAUGAGGAUCACCCAUGUUAACGUGAUG [Mod of Brourd 20 - Jieux - Exclusion 6] (Eterna round: R97, puzzle: Exclusion 6)	48.9	20.7	–	–
AGAUCACAUGAGGAUCACCCAUGUGAGGAUAUCGACUGAACAGCUUCGGCUGUUCAGUCGAGAAGGCACAAUUA [EX1 #41] (Eterna round: R97, puzzle: Exclusion 1)	45.1	23.8	–	–
GUCGUGUAAGGAUAUGCAUCGAGGUAGCGAAUGUUGCAGGUGUAGAAGGUACAUGAGGAUCACCCAUGUAAUGU [Exclusion 4 - An extended Mod of Jieux] (puzzle: Exclusion 4)	–	–	20.2	–

Sequence	apparent KD of MS2 coat protein (input ligand: FMN 200 uM) [nM]	apparent KD of MS2 coat protein (input ligand: none) [nM]	apparent KD of MS2 coat protein [3] [nM]	other results
GUCACAUGGACAUAGGAUCACAUGAGGAUCACCCAUGUGACUAACAAGCUUUUUGUUCGUCUUAUGUCUAUGUGAAG [Stov1/16-B3] (Eterna round: R97, puzzle: Sensor, turn-off variant 1)	13.1	16.9	–	–
UAUAUAUAGUAAGGAUAUGUAUUAAUUUGAUAAACAGAAGGUACUGACAUGAGGAUCACCCAUGUUUUAGUGUGGGCAUGUAGA [JMF's solution 84] (Eterna round: R96, puzzle: Exclusion NG 1)	–	–	–	apparent KD of MS2 coat protein [1]: 75.6 nM
UGAGGACAUGAGGAUCACCCAUGUAAGGAUAUGCGGAGAGUUUGGAGAGGUUGAGGAGGCAGAAGGUACAGGAU [JR_Exclu1_Sub047] (puzzle: Exclusion 1)	–	–	49.2	–
CUUAGACAUGAGGAUCACCCAUGUGAGGAUAUGAUGCGAUCGUCGAAAGACGAUAGCAUCAGAAGGCACAUAUG [Fiskers Ex 1 - 6] (puzzle: Exclusion 1)	–	–	132	–
CAAAAGGGAGGAUAUACAUGAGGAUCACCCAUGUACGGUUCACGGGUAGGUGCGUAUAGUAGAAGGCCCGCAUA [Abiace] (Eterna round: R97, puzzle: Exclusion 3)	172	83.4	–	–
GCAAAGGUAGGAUAUCCACUGUGCAACAUGAGGAUCACCCAUGUGGUUCUUACCAUAAUUGGAGAAGGGCCGUGCA [Inrariri] (puzzle: Exclusion 5)	–	–	19.3	apparent KD of MS2 coat protein [2]: 19.7 nM; apparent KD of MS2 coat protein [4]: 24.2 nM
UUGUGCACGCUGCGGUCCUACAUGAGGAUCACCCAUGUGGUCUGGUGGCGUGGGUCACCGGACUUGGCUCGUCUUGA [salish99_S_TOV1_R5_061] (Eterna round: R97, puzzle: Sensor, turn-off variant 1)	52.7	57.8	–	–
CUGGUCCGAGGAUAUAUUAAGUGAUACAUGAGGAUCACCCAUGUUAUUUGAUGGAUGUAAAUAGAAGGCGGACUAG [JL-ex5-3.17] (puzzle: Exclusion 5)	–	–	38.9	apparent KD of MS2 coat protein [2]: 37.1 nM; apparent KD of MS2 coat protein [4]: 45.2 nM
AUUUUGUCAGGAUAUGAGUAGUAGGACGAAAGUGUUAUUAUUUAGAAGGGACAUGAGGAUCACCCAUGUUUUCC [Bring Us a Shrubbery-04] (puzzle: Exclusion 4)	–	–	12	–
AAACUACUAGGAUAUACAACGGUGUCCUAACUACUAAGAAAACAUGAGGAUCACCCAUGUAGAAGGAGUAGUGA [Lauslabe] (Eterna round: R96, puzzle: Exclusion 2)	–	–	–	apparent KD of MS2 coat protein [1]: 28.6 nM
UCAUAACAUGAGGAUCACCCAUGUCAGGAUAUGAUACUAUGUACUUCGGUACAUAGUAUCAGAAGGGACAUGCU [Brourd's Ex1-3: 12 (nt 72 G)] (puzzle: Exclusion 1)	–	–	135	–
GCAGCAUAGUUUACUAACUGUUACAUGAGGAUCACCCAUGUUGAGGAUAUGGUCUGGAUUACAGGCCAGAAGGCGACAAGCUGC [Eli exng3 - 028] (Eterna round: R96, puzzle: Exclusion NG 3)	18.1	16.9	–	apparent KD of MS2 coat protein [1]: 13 nM
AACAGGUCAGGAUAUACAUGAGGAUCACCCAUGUAGACUUCUGGUCUACCGAGACCGUGUAGAAGGGACCUGAA [Exclusion 3 (MOD3 of #98 Marzena11)] (Eterna round: R97, puzzle: Exclusion 3)	104	35.7	–	–
UAUAUGUGAGGAUAUCCUUUAUUAAUUAUUAUAUUAUAUAUGGAGAAGGCACAUGAGGAUCACCCAUGUUAUAU [lam1] (Eterna round: R97, puzzle: Exclusion 4)	72.8	42.1	–	–
CGCUGGACAGGAUAUGUUCUUGAGCACUUGAGGAUCACCCAAGUCAUCAAGAACUCAGGCACAGAAGGGUUUAUGG [salish99_ex5_r4_016] (Eterna round: R97, puzzle: Exclusion 5)	24.6	13.4	–	–
UAAUAAAAGGAGGAUAUCGUAUCGGAAACGAUACGAGAAGGCUUAACAUGAGGAUCACCCAUGUUCCUCAAUAA [Mat - Exclusion 6 - Eli Mod - D90] (puzzle: Exclusion 6)	–	–	28.6	apparent KD of MS2 coat protein [2]: 59.3 nM; apparent KD of MS2 coat protein [4]: 32.6 nM
ACGUGAUAUCUGUCGGUGGACAUGAGGAUCACCCAUGUAAGCUUUUUGCUUGUCUUAUAACCCGGUGACAGACCUUC [Inxeer] (puzzle: Sensor v3, turn-off variant 1)	–	–	540	apparent KD of MS2 coat protein [2]: 23.1 nM; apparent KD of MS2 coat protein [4]: 26.5 nM
